Reference: PMC3877283, “Development of Novel Radiogallium-Labeled Bone Imaging Agents Using Oligo-Aspartic Acid Peptides as Carriers” (PLoS ONE, 2013)
Like-named read-outs stand apart in the source and are kept apart here. Marks after values point to notes of the source that are not given here. Peptide text beside a SMILES is read from it. * marks the point of attachment. DOTA = O=C(O)CN1CCN(CC(=O)O)CCN(CC(=O)*)CCN(CC(=O)O)CC1

How the values were obtained:
[1] = Biodistribution experiments in normal mice; format: in vivo, ddY mice; conditions: normal mice, i.v.
Procedure: (§1) Experiments with animals were conducted in strict accordance with the Guidelines for the Care and Use of Laboratory Animals of Kanazawa University. The animal experimental protocols used were approved by the Committee on Animal Experimentation of Kanazawa University (Permit Number: AP-132633). Biodistribution experiments were performed after an intravenous administration of each diluted tracer solution (37 kBq/100 µL) to 6-week-old male ddY mice (27–32 g, Japan SLC, Inc., Hamamatsu, Japan). To investigate the effect of an excess amount of bisphosphonate on biodistribution, alendronate (20 mg/kg) was intravenously administered to mice 1 minute before the intravenous injection of ^67Ga-DOTA-(Asp)14 or ^67Ga-DOTA-Bn-SCN-HBP. Four to six mice each were sacrificed by decapitation at 10, 60, and 180 minutes post-injection. Tissues of interest were removed and weighed. Complete left femurs were isolated as representative bone samples, radioactivity was determined using an auto well gamma counter, and counts were corrected for background radiation and physical decay during counting.

[2] = Biodistribution experiments in mice with pretreatment of alendronate (20 mg/kg); format: in vivo, ddY mice; conditions: for Radioactivity in Bone (Femur): Bone (complete left femur); for Radioactivity in Stomach: Stomach (footnote b)
Procedure: as §1

[3] = 10 min after i.v. administration, alendronate 20 mg/kg i.v. 1 minute before, male ddY mice, mean (SD) for five or six animals
[4] = 60 min (1 h) after i.v. administration, alendronate 20 mg/kg i.v. 1 minute before, male ddY mice, mean (SD) for five or six animals
[5] = 180 min (3 h) after i.v. administration, alendronate 20 mg/kg i.v. 1 minute before, male ddY mice, mean (SD) for five or six animals

O=C(O)C[C@H](NC(=O)[C@H](CC(=O)O)NC(=O)[C@H](CC(=O)O)NC(=O)[C@H](CC(=O)O)NC(=O)[C@H](CC(=O)O)NC(=O)[C@H](CC(=O)O)NC(=O)[C@H](CC(=O)O)NC(=O)[C@H](CC(=O)O)NC(=O)[C@H](CC(=O)O)NC(=O)[C@H](CC(=O)O)NC(=O)[C@H](CC(=O)O)NC(=O)[C@H](CC(=O)O)NC(=O)[C@H](CC(=O)O)NC(=O)[C@H](CC(=O)O)NC(=O)CN1CCN(CC(=O)O)CCN(CC(=O)O)CCN(CC(=O)O)CC1)C(=O)O [67Ga-DOTA-(Asp)14, metal not drawn] ({DOTA}-DDDDDDDDDDDDDD-OH)
accumulation of radioactivity in the femur (in words) [1]: higher accumulation
F/B ratio (Femur:blood ratio) [2, 3]: 4.50 (0.63) ^**
F/B ratio (Femur:blood ratio) [2, 4]: 52.96 (17.28) ^**
F/B ratio (Femur:blood ratio) [2, 5]: 229.73 (67.08) ^**
Radioactivity in Blood ([2]; Blood, 60 min (1 h) after i.v. administration, alendronate 20 mg/kg i.v. 1 minute before, male ddY mice, mean (SD) for five or six animals): 0.23 (0.05) ^** % injected dose
Radioactivity in Blood ([2]; Blood, 180 min (3 h) after i.v. administration, alendronate 20 mg/kg i.v. 1 minute before, male ddY mice, mean (SD) for five or six animals): 0.06 (0.02) ^** % injected dose
Radioactivity in Bone (Femur) [2, 3]: 8.59 (0.55) ^** % injected dose
Radioactivity in Bone (Femur) [2, 4]: 11.81 (1.95) % injected dose
Radioactivity in Bone (Femur) [2, 5]: 12.88 (2.30) % injected dose
Radioactivity in Brain [2, 3]: 0.05 (0.01) % injected dose
Radioactivity in Brain [2, 4]: 0.02 (0.00) ^* % injected dose
Radioactivity in Brain [2, 5]: 0.01 (0.00) % injected dose
Radioactivity in Heart ([2]; Heart, 60 min (1 h) after i.v. administration, alendronate 20 mg/kg i.v. 1 minute before, male ddY mice, mean (SD) for five or six animals): 0.24 (0.08) ^** % injected dose
Radioactivity in Heart ([2]; Heart, 180 min (3 h) after i.v. administration, alendronate 20 mg/kg i.v. 1 minute before, male ddY mice, mean (SD) for five or six animals): 0.15 (0.07) ^** % injected dose
Radioactivity in Kidney ([2]; Kidney, 60 min (1 h) after i.v. administration, alendronate 20 mg/kg i.v. 1 minute before, male ddY mice, mean (SD) for five or six animals): 3.28 (0.82) ^** % injected dose
Radioactivity in Kidney ([2]; Kidney, 180 min (3 h) after i.v. administration, alendronate 20 mg/kg i.v. 1 minute before, male ddY mice, mean (SD) for five or six animals): 3.34 (0.92) ^** % injected dose
Radioactivity in Large-intestine [2, 3]: 0.40 (0.08) ^* % injected dose
Radioactivity in Large-intestine [2, 4]: 0.08 (0.01) ^** % injected dose
Radioactivity in Large-intestine [2, 5]: 0.33 (0.07) ^** % injected dose
Radioactivity in Liver ([2]; Liver, 60 min (1 h) after i.v. administration, alendronate 20 mg/kg i.v. 1 minute before, male ddY mice, mean (SD) for five or six animals): 1.39 (0.29) ^** % injected dose
Radioactivity in Liver ([2]; Liver, 180 min (3 h) after i.v. administration, alendronate 20 mg/kg i.v. 1 minute before, male ddY mice, mean (SD) for five or six animals): 1.27 (0.72) ^** % injected dose
Radioactivity in Lung ([2]; Lung, 180 min (3 h) after i.v. administration, alendronate 20 mg/kg i.v. 1 minute before, male ddY mice, mean (SD) for five or six animals): 2.49 (1.78) ^* % injected dose
Radioactivity in Muscle ([2]; Muscle, 60 min (1 h) after i.v. administration, alendronate 20 mg/kg i.v. 1 minute before, male ddY mice, mean (SD) for five or six animals): 0.11 (0.07) % injected dose
Radioactivity in Muscle ([2]; Muscle, 180 min (3 h) after i.v. administration, alendronate 20 mg/kg i.v. 1 minute before, male ddY mice, mean (SD) for five or six animals): 0.05 (0.02) % injected dose
Radioactivity in Pancreas [2, 3]: 0.72 (0.12) ^** % injected dose
Radioactivity in Pancreas [2, 4]: 0.15 (0.02) ^** % injected dose
Radioactivity in Pancreas [2, 5]: 0.12 (0.07) ^* % injected dose
Radioactivity in Small-intestine [2, 3]: 0.53 (0.09) ^* % injected dose
Radioactivity in Small-intestine [2, 4]: 0.22 (0.05) ^** % injected dose
Radioactivity in Small-intestine [2, 5]: 0.29 (0.12) ^** % injected dose
Radioactivity in Spleen ([2]; Spleen, 60 min (1 h) after i.v. administration, alendronate 20 mg/kg i.v. 1 minute before, male ddY mice, mean (SD) for five or six animals): 1.03 (0.35) ^** % injected dose
Radioactivity in Spleen ([2]; Spleen, 180 min (3 h) after i.v. administration, alendronate 20 mg/kg i.v. 1 minute before, male ddY mice, mean (SD) for five or six animals): 0.89 (0.59) ^* % injected dose
Radioactivity in Stomach [2, 3]: 0.36 (0.09) ^* % injected dose
Radioactivity in Stomach [2, 4]: 0.15 (0.12) % injected dose
Radioactivity in Stomach [2, 5]: 0.11 (0.04) ^** % injected dose
effect of alendronate pretreatment on accumulation in bone (in words) ([2]; alendronate 20 mg/kg i.v. 1 minute before tracer, mice): comparatively little effect
tissue uptake dose at 10 min ([2]; male, ddY, mouse, in vivo, iv, total radioactivity, Blood, 10 min after i.v. administration, alendronate 20 mg/kg i.v. 1 minute before, male ddY mice, mean (SD) for five or six animals, read-out: Radioactivity in Blood): 1.94 %ID
tissue uptake dose at 10 min ([2]; male, ddY, mouse, in vivo, iv, total radioactivity, Heart, 10 min after i.v. administration, alendronate 20 mg/kg i.v. 1 minute before, male ddY mice, mean (SD) for five or six animals, read-out: Radioactivity in Heart): 0.88 %ID
tissue uptake dose at 10 min ([2]; male, ddY, mouse, in vivo, iv, total radioactivity, Kidney, 10 min after i.v. administration, alendronate 20 mg/kg i.v. 1 minute before, male ddY mice, mean (SD) for five or six animals, read-out: Radioactivity in Kidney): 16.7 %ID
tissue uptake dose at 10 min ([2]; male, ddY, mouse, in vivo, iv, total radioactivity, Liver, 10 min after i.v. administration, alendronate 20 mg/kg i.v. 1 minute before, male ddY mice, mean (SD) for five or six animals, read-out: Radioactivity in Liver): 2.2 %ID
tissue uptake dose at 10 min ([2]; male, ddY, mouse, in vivo, iv, total radioactivity, Lung, 10 min after i.v. administration, alendronate 20 mg/kg i.v. 1 minute before, male ddY mice, mean (SD) for five or six animals, read-out: Radioactivity in Lung): 5.86 %ID
tissue uptake dose at 1 h ([2]; male, ddY, mouse, in vivo, iv, total radioactivity, Lung, 60 min (1 h) after i.v. administration, alendronate 20 mg/kg i.v. 1 minute before, male ddY mice, mean (SD) for five or six animals): 4.07 %ID
tissue uptake dose at 10 min ([2]; male, ddY, mouse, in vivo, iv, total radioactivity, Muscle, 10 min after i.v. administration, alendronate 20 mg/kg i.v. 1 minute before, male ddY mice, mean (SD) for five or six animals, read-out: Radioactivity in Muscle): 0.53 %ID
tissue uptake dose at 10 min ([2]; male, ddY, mouse, in vivo, iv, total radioactivity, Spleen, 10 min after i.v. administration, alendronate 20 mg/kg i.v. 1 minute before, male ddY mice, mean (SD) for five or six animals, read-out: Radioactivity in Spleen): 1.86 %ID
